Measurements taken from patent publication US8877192B2, “Rage fusion proteins and methods of use” (TransTech Pharma, LLC, priority 2004, dated 2014).
Like-named read-outs stand apart in the source and are kept apart here.

How the values were obtained:
[1] = listed as human sRAGE; cited from earlier work
[2] = cited from earlier work
amyloid-beta (Abeta) = molecular target: T1, amyloid-beta (Abeta) (Homo sapiens, UniProt P05067); experiment: In vitro ligand binding (ELISA) to immobilized amyloid-beta; conditions: increasing dilutions of fusion protein; FIG. 7
T1 construct: Amyloid Beta (1-40) from Biosource; purchased Biosource
T1 sequence (P05067 672-711 limits assumed): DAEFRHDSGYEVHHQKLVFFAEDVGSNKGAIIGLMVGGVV
Protocol: (§1) For example, the RAGE fusion protein may be used in a binding assay to identify potential RAGE ligands. In one example embodiment of such a binding assay, a known RAGE ligand may coated onto a solid substrate (e.g., Maxisorb plates) at a concentration of about 5 micrograms per well, where each well contains a total volume of about 100 microliters (μL). The plates may be incubated at 4° C. overnight to allow the ligand to absorb. Alternatively, shorter incubation periods at higher temperature (e.g., room temperature) may be used. […] The fusion protein bound to the immobilized ligand may be detected in a variety of ways. […] The bound complex may be detected by adding the alkaline phosphatase substrate, para-nitrophenylphosphate (PNPP), and measuring conversion of PNPP to para-nitrophenol (PNP) as an increase in absorbance at 405 nm. […] Binding was detected by the addition of an immunodetection complex containing a monoclonal mouse anti-human IgG1 diluted 1:11,000 to a final assay concentration (FAC) of 21 ng/100 μL, a biotinylated goat anti-mouse IgG diluted 1:500, to a FAC of […], and an avidin-linked alkaline phosphatase. […] Binding of the complex to the immobilized fusion protein was quantified by measuring conversion of PNPP to para-nitrophenol (PNP) which was measured spectrophotometrically at 405 nm. […]

amphoterin (Ampho) = molecular target: T2, amphoterin (Ampho) (Homo sapiens, UniProt P09429); experiment: In vitro ligand binding (ELISA) to immobilized amphoterin; conditions: increasing dilutions of fusion protein; FIG. 7
T2 sequence (P09429 1-215): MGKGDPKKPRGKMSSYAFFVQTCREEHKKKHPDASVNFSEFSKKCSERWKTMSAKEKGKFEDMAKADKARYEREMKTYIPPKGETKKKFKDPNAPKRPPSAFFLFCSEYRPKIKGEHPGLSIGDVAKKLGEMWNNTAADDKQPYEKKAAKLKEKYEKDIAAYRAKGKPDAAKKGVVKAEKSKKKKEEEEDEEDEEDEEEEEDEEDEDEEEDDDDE
Protocol: as §1

S100b (S100) = molecular target: T3, S100b (S100) (Homo sapiens, UniProt P04271); experiment: In vitro ligand binding (ELISA) to immobilized S100b; conditions: increasing dilutions of fusion protein; FIG. 7
T3 sequence (P04271 1-92): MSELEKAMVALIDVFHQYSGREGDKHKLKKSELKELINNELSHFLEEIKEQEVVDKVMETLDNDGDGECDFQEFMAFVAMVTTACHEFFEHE
Protocol: as §1

[3] = test system: transgenic mice expressing the human Swedish mutant amyloid precursor protein (APP); experiment: Mouse model of AD (APP transgenic mice); format: in vivo; conditions: treated for 3 months, versus vehicle and human IgG1
Protocol: Experiments were performed to evaluate whether TTP-4000 could affect amyloid formation and cognitive dysfunction in a mouse model of AD. The experiments utilized transgenic mice expressing the human Swedish mutant amyloid precursor protein (APP) under the control of the PDGF-B chain promoter. Over time, these mice generate high levels of the RAGE ligand, amyloid beta (Aβ).
The APP mice (male) used in this experiment were designed by microinjection of the human APP gene (with the Swedish and London mutations) into mouse eggs under the control of the platelet-derived growth factor B (PDGF-B) chain gene promoter. The mice were generated on a C57BL/6 background and were developed by Molecular Therapeutics Inc. Animals were fed ad libitum and maintained by brother sister mating. The mice generated from this construct develop amyloid deposits starting at 6 months of age. Animals were aged for 6 months and then maintained for 90 days and sacrificed for amyloid quantification.
APP transgenic mice were administered vehicle or TTP4000 every other day [qod (i.p.)] for 90 days starting at 6 months of age. At the end of the experiment, animals were sacrificed and examined for Aβ plaque burden in the brain (i.e., plaque number). A 6-month control APP group was used to determine the baseline of amyloid deposits. In addition, at the end of the study, the animals were subjected to behavioral (Morris water maze) analysis. The investigators were blinded to the study compounds. Samples were given to the mice at 0.25 ml/mouse/every other day.
For histological examination, the animals were anesthetized with an intraperitoneal injection (IP) of sodium pentobarbital (50 mg/kg). The animals were transcardially perfused with 4° C., phosphate-buffered saline (PBS) followed by 4% paraformaldehyde. The brains were removed and placed in 4% paraformaldehyde over night. The brains were processed to paraffin and embedded. Ten serial 30-μm thick sections through the brain were obtained. Sections were subjected to primary antibody overnight at 4° C. (Aβ peptide antibody) in order to detect the amyloid deposits in the brain of the transgenic animals (Guo et al., J. Neurosci., 22:5900-5909 (2002)). Sections were washed in Tris-buffered saline (TBS) and secondary antibody was added and incubated for 1 hour at room temperature. After washing, the sections were incubated as instructed in the Vector ABC Elite kit (Vector Laboratories) and stained with […] (DAB). The reactions were stopped in water and cover-slipped after treatment with xylene. The amyloid area in each section was determined with a computer-assisted image analysis system, consisting of a Power Macintosh computer equipped with a Quick Capture frame grabber card, Hitachi CCD camera mounted on an Olympus microscope and camera stand. NIH Image Analysis Software, v. 1.55 was used. The images were captured and the total area of amyloid was determined over the ten sections. A single operator blinded to treatment status performed all measurements. Summing the amyloid volumes of the sections and dividing by the total number of sections was done to calculate the amyloid volume.
For quantitative analysis, an enzyme-linked immunosorbent assay (ELISA) was used to measure the levels of human total Aβ, Aβtotal and Aβ1-42 in the brains of APP transgenic mice (Biosource International, Camarillo, Calif.). Aβtotal and Aβ1-42 were extracted from mouse brains by guanidine hydrochloride and quantified as described by the manufacturer. […]

In the case of “sRAGE: soluble RAGE: the RAGE protein that does not include the transmembrane region or the cytoplasmic tail”, the half-life in plasma [1] is given as “about 2 hours” and the half-life ([2]; assessed by retention of immunoreactivity sRAGE) is given as “less than 2 hours”.

B1: rodent sRAGE: rodent soluble RAGE, literature half-life comparator (protein, UniProt Q63495 23-341, looked up)
extracellular domain: GQNITARIGEPLMLSCKGAPKKPTQKLEWKLNTGRTEAWKVLSPQGDPWDSVARILPNGSLLLPAIGIVDEGTFRCRATNRLGKEVKSNYRVRVYQIPGKPEIVNPASELTANVPNKVGTCVSEGSYPAGTLSWHLDGKPLIPDGKGTVVKEETRRHPETGLFTLRSELTVTPAQGGTTPTYSCSFSLGLPRRRPLNTAPIQPRVREPLPPEGIQLLVEPEGGTVAPGGTVTLTCAISAQPPPQIHWIKDGTPLPLAPSPVLLLPEVGHEDEGIYSCVATHPSHGPQESPPVNIRVTETGDEGQAAGSVDGSGLGTLAL
modifications: extracellular domain
notes: rodent soluble RAGE, literature half-life comparator
In the case of B1, the half-life ([2]; in normal and diabetic rats) is listed as “approximately 20 hours”.

B2: TTP-3000: three domain RAGE fusion protein (SEQ ID NO: 35): human RAGE amino acids 1-136 linked to CH2 and CH3 domains of human IgG (protein)
chain: MAAGTAVGAWVLVLSLWGAVVGAQNITARIGEPLVLKCKGAPKKPPQRLEWKLNTGRTEAWKVLSPQGGGPWDSVARVLPNGSLFLPAVGIQDEGIFRCQAMNRNGKETKSNYRVRVYQIPGKPEIVDSASELTAGPSVFLFPPKPKDTLMISRTPEVTCVVVDVSHEDPEVKFNWYVDGVEVHNAKTKPREEQYNSTYRVVSVLTVLHQDWLNGKEYKCKVSNKALPAPIEKTISKAKGQPREPQVYTLPPSRDELTKNQVSLTCLVKGFYPSDIAVEWESNGQPENNYKTTPPVLDSDGSFFLYSKLTVDKSRWQQGNVFSCSVMHEALHNHYTQKSLSLSPGK
In the case of B2, the “binding to immobilized amyloid-beta (absorbance at 405 nm)” value (amyloid-beta (Abeta)) is reported as “specifically interact”, the “binding to immobilized amphoterin (absorbance at 405 nm)” value (amphoterin (Ampho)) is reported as “specifically interact” and the “binding to immobilized S100b (absorbance at 405 nm)” value (S100b (S100)) is reported as “specifically interact”.

B3: mouse sRAGE: mouse soluble RAGE used as comparator in the AD mouse model (protein, UniProt Q62151 23-340, looked up)
extracellular domain: GQNITARIGEPLVLSCKGAPKKPPQQLEWKLNTGRTEAWKVLSPQGGPWDSVARILPNGSLLLPATGIVDEGTFRCRATNRRGKEVKSNYRVRVYQIPGKPEIVDPASELTASVPNKVGTCVSEGSYPAGTLSWHLDGKLLIPDGKETLVKEETRRHPETGLFTLRSELTVIPTQGGTHPTFSCSFSLGLPRRRPLNTAPIQLRVREPGPPEGIQLLVEPEGGIVAPGGTVTLTCAISAQPPPQVHWIKDGAPLPLAPSPVLLLPEVGHEDEGTYSCVATHPSHGPQESPPVSIRVTETGDEGPAEGSVGESGLGTLA
modifications: extracellular domain
notes: mouse soluble RAGE used as comparator in the AD mouse model
In the case of B3, the “Aβ plaques in the brain” value ([3]; FIG. 14A) is reported as “fewer Aβ plaques” and the “cognitive dysfunction (Morris water maze)” value ([3]; FIG. 14B) is reported as “less cognitive dysfunction”.
